Article PMC7547225 (Proceedings of the National Academy of Sciences of the …, 2020)

Key:
AUC = target: the molecule itself; experiment: AUC
[1] = target: the molecule itself

B1: hs PCDH15 EC2-3 WT (domain or fragment)
chain: NSPTFKHESYYATVNELTPVGTTIFTGFSGDNGATDIDDGPNGQIEYVIQYNPDDPTSNDTFEIPLMLTGNIVLRKRLNYEDKTRYFVIIQANDRAQNLNERRTTTTTLTVDVLDGDDLGPMFLPCVLVPNTRDCRPLTYQAAIPELRTPEELNPIIVTPPIQAIDQDRNIQPPSDRPGILYSILVGTPEDYPRFFHMHPRTAELSLLEPVNRDFHQKFDLVIKAEQDNGHPLPAFAGLHIEILDENN
Kd (AUC): < 1 µM

B2: hs PCDH15 EC1-3 G16D/N369D/Q370N (domain or fragment)
chain: not shown
stoichiometry N [1]: 2
